Source: the DeepSol protein solubility set

Assay: soluble on expression in E. coli; label from the status in PepcDB or PDB records

| Sequence | soluble on expression in E. coli |
| --- | --- |
| VANITFSSPVMAKDVTVYAVAGDRGTILAVAKSHSIPIPFDCQDGECGSCLVQVEHFNPKAKAAVALTEKEKEVLRQLGKITKEEIVDAEVNDIPPRYRLACQCFVRNEDILVKFEGDKTKPQRLAVTPAAAHYKGGMEINTPQEFFSYAAKVEEDAALHYDSLAKAMADAGNAPVAKLFAQLAEFSRLHLAEVKSRAGSIDLSKSVPPDYAWPDHATPERAAVWASDTTLTRLGALKAALQGERRGYEFYRAVEATTKSSEVAAAAKEFVNEEAEHVRILEAWITQEEWSLKHAAKAAENA | not soluble |
| QEQAVILRFGKYYETVGPGLNFYFPPIDKRFQENVTRERAYSKQGQMLTEDENIVEVPLTVQYKISNLQDFVLNVDQPEVSLQQATESALRHVAGSTTMDRILTEGREQMATEVRERLQRFLDTYRTGITVTQVNIQSAQAPREVQEAFDDVIRAREDEQREKNQAEAYANGVVPEARGQAQRIIEEANGYRDEVISRAQGEADRFSKLLVEYRKAPEVTRERLYLDTMQEVFSQTSKVLVTGQQGQNNLLYLPLDKMIDGRNAAPATGAGASAGGGSASASDLGSRIVNDLRQQDARTRESR | not soluble |
| MSLTGREILEKLERREFTREVLKEALSINDRGFNEALFKLADEIRRKYVGDEVHIRAIIEFSNVCRKNCLYCGLRRDNKNLKRYRMTPEEIVERARLAVQFGAKTIVLQSGEDPYYMPDVISDIVKEIKKMGVAVTLSLGEWPREYYEKWKEAGADRYLLRHETANPVLHRKLRPDTSFENRLNCLLTLKELGYETGAGSMVGLPGQTIDDLVDDLLFLKEHDFDMVGIGPFIPHPDTPLANEKKGDFTLTLKMVALTRILLPDSNIPATTAMGTIVPGGREITLRCGANVIMPNWTPSPYRQLYQLYPGKICVFEKDTACIPCVMKMIELLGRKPGRDWGGRKRVFETVEGHHHHHH | soluble |
| NDPEWFAIVKWTLFAMLNAEEAKITSKNVEAEAKATKNPDVARMLGADGTYGKDLNLPKDWVVQIVKQVGNYGEVFERNLGEGTPLKIKRGQNALWNAGGIQYAPPIR | not soluble |
| MGSDKIHHHHHHMNYTQNQKISQITPSTLVIGIDVAKDKHVARAQDDRGLEFGKRLIFENRIHGFELLLEWALRHAKENSKDHIIFGVEPTGHYWLNLAYYLTAKDFDFVLVNPMHVKKSKELDDNSPTKNDTKDAKVISQLIKDGRYSVPNLLDGIYAELREGVKLRDQLIQQLLITEGRIQNIIDRYFPEFFDVFGDWEGKAAFCTLKLFPFPSQIVKMTPEEVLRQWKPFVQRGVGIKRATKLVETAHKSIGITIGSHFAQREMSSLLDQWELFKKQLEELDQELEGVVRTIPGANEMIDITGLGVATVTTVLSEIGDLKKYKHPQQLVNLAGLSLRENSSGKFKGQTTITKRGRSKLRRALYLAIRPLVAHNPTFKALHHYYTKRPDKPLKKQQSLIALCCKLLRVLFVIGQKQCPFDGSKLLQGIPQEKTLQAA | not soluble |
| MAHHHHHHMGTLEAQTQGPGSMLNKRKFYINGLWDDPSTPHDLYVIDPSTEEACAVISLGSTRDADKAINAAKKAFQTWKTTSPHERLGFVEKILEIYEKRSSDMAKTISMEMGAPIDMALNAQTATGSSHIRNFIKAYKEFSFQEALIEGNEQAILHYDAIGVVGLITPWNWPMNQVTLKVIPALLAGCTMVLKPSEIAPLSAMLFAEILDEAALPSGVFNLINGDGANVGSYLSAHPDLEMISFTGSTRAGKDISKNASNTLKRVCLELGGKGANIIFADADIDALQRGVRHCFYNSGQSCNAPTRMLVEQAIYDKAIKTAKDIAEKTQVGPGHQTGNHIGPVVSKEQYDKIQDLIQSGIDEGATLVTGGTGLPMGMERGYYVRPTVFADVKPHMRIFREEIFGPVLSLLPFNTEDEAVTLANDTEYGLTNYIQSQDRSKCRRIAAQVRSGMVEVNGHELPGGSYFGGVKFSGRAREGGLWGIKEFLDTKAISYW | soluble |
| MILINVKYQVRPEYVDTFLDEVKWFTDACRAEEGNLFFDWFKNPEKDNEFILVEGFKDGSDVAHVQSEAFQRACEEIPRYLLETPKIINVSIPGKTEWDTMAEFVVE | not soluble |
| MTSSNEKLPKINHDNEVFALLYKILSSEVQTIKGEDNEKVNQLRVDITISEISQLTDKMKKAFLEQPALLEISNEPITVVADMHGQSIHLLRIFLTNEAPPNQKYLFLGDYVDRGSQSVVVMCLLFCMKHRYPQHVFLLRGNHEDVNTTLNYGFYDECLEQWKNDEGEKVWRMFIDTFNCMPLAAVIGGKVFCAHGGISPWLESLEDINSIERPLVVPPYGLACDLLWSDPAQPERNGWGLSHRGISFTYGKSVVEEFCAKNDIALVIRGHQLFKEMYPQGCVLRFGGRLISLFSALNYEGHKNNSSVLKLEFVGQRVKVKQVLYRCRHYAPLRSNEYLGFRDMKSSSGKNEKRKKGRLESLLG | not soluble |
| MTAARSAPSPAGAPRPGLRERKKTRTREAIRAATYGLIRQQGYEATTVEQIAERAEVSPSTVLRYFPTREDIVLTDEYDPVMAAELAARPAGEPWSDSLRHVLRKALGLGAGEEAELIRLRTRLLAEVPAVRARMLENMSDTGRMLARAIADRTGLDPDGLEVRIVSMSLVGGLMEVSRYWAEHDHEESLAELVDRALDALENGLPALRESDRESDREGDRGGHREDRREGPRKD | soluble |
| NYNIYDHPKAAEDRKNTVLYLMHYHKRITDKQWEDAKKIDLKANLVNRTPEERQNIDTNQDSEYNSYVNFVKSELMNNKAFKDENLGNVLQSG | not soluble |
| MTHRPAPDDMAELIYTSGTTGNPKGVILTHRNLVANILQVNRHIPVVTPDFSFLSLLPLSHMFEQMGGFFTPLYRGAAIVYIRTLKPSAIMEALGEEDIYAIIAVPRLLQLLKGSVERELEAKGLGSIFRWLLKVGERMSRGGRSVLFRPIQRKFGRNFALFVSGGAPLDPEVFRFWNGLGFRVVEGYGLTECSPVLTANTMERQVMGSVGLEHHHHHH | soluble |
| MSLTNVVAYIRVSTKSQGDSGLGLEAQRDYIQRAAQANDWNVVGEFVDVVSGKLALEDRPEGAKALTMCKQHNAQLLVAKLDRLSRSVLHIAQLMEQVDFKVATMPQADKFQLHLFAALAQQEREFIATRTKEALASLQRRADAGDAVAQQKVANRAEAQAKGRAVADITAANNIRMSKINTYQTNIEPHLKSCLHDKISEGHHHHHH | soluble |
| MRLRNKPWAKDKIAAYPQYVIPDPETKRGRWRELFGRDRPIHVEIGTGKGKFITEMAKLHPDVNFIGIELYPSVLVSALDKLIESGLANVKLLNANAKDLTAFFADGEVSRIYLNFSDPWPKKRHEKRRLTYRDFLALYDRILAEDGDIHLKTDNQSFFEYSLVSLSQYGFVLASVQLDLHQSGMTDNVMTEYEEKFSSKGNRIYPMRGGAPAAAVVIGPNRLVGSFSISD | not soluble |
| MGRARDAILDALENLTAEELKKFKLQAATHQGSGAAPAGIQAPPQSAAKPGLHFIDQHRAALIARVTNVEWLLDALYGKVLTDEQYQAVRAEPTNPSKMRKLFSFTPAWNWTCKDLLLQALRESQSYLVEDLERS | soluble |
| MDGSFVQHSVRVLQELNKQREKGQYCDATLDVGGLVFKAHWSVLACCSHFFQRIYGDGTGGSVVLPAGFAEIFGLLLDFFYTGHLALTSGNRDQVLLAAKELRVPEAVELCQSFQPQTSVGQAQSGLGQPASQDVKSHLKEPTDLDEEEVFKTLSLASVDQEPRDTEQPQLGTPAQSSTAFLCGKLTQALKPSPSEDKESEDCKEPPRPFEAGGAPLQGESNEWEVVVQVEDDRDGDYVSEPETVLTRRKSKVIRKPCAAEPALGAGSLTAEPTDSRKGAAVPVECPTCHKKFLSKYYLKVHNRKHTGEKPFECPKCGKCYFRKENLLEHEARNCMNRSEQVFTCSVCQETFRRRMELRLHMVSHTGEMPYKCSSCSQQFMQKKDLQSHMIKLHGAPKPHAVSASQGWGSGGSGTAQSCPHLDVLPLPVSPTCSAPLVPSASCLGRSYSCTRLLSIVEKSSLCVRNAGTGPRAATGCRCTSRPSTGMKGLMSVSSAAMPSPRRPTSTCTCARTPARSLSSATSVGRPSAPKFGQAQPHPHGREAFQL | soluble |
| MRFLHTADWQLGMTRHFLNGEAQPRYSASRREAVASLGEIAKRTGAEFVVVSGDVFEHNQLAPRDVSQSLEAMRAIGVPVYLLPGNHDPLDASSVYTSALFVAERPDNVVVLDRAGVHEVRPGVQIVAAPWRSKAPTSDLIGDVLADLPADGVTRVLVGHGGVDILDPDKNKPSLIRMAAVEDALARGAVHYVALGDKHSRTEVGGSGRVWYSGSPEVTNYDDIESDPGHVLVVDIDENDARRAVRVESEKVGRWRFVTLRRSVDTDRDIADLDLNLDLLDDKERTVVRLALTGSLTVTDKAKLDECLDRYARLFAALTTWERLEHHHHHH | not soluble |
| MPEVIFNGPAGRLEGRYQPSKEKSAPIAIILHPHPQFGGTMNNQIVYQLFYLFQKRGFTTLRFNFRSIGRSQGEFDHGAGELSDAASALDWVQSLHPDSKSCWVAGYSFGAWIGMQLLMRRPEIEGFMSIAPQPNTYDFSFLAPCPSSGLIINGDADKVAPEKDVNGLVEKLKTQKGILITHRTLPGANHFFNGKVDELMGECEDYLDRRLNGELVPEPAAKRIR | soluble |
| MVDIDSAVEAARRRGARRIVLQLPEGMLQYGLYIAKCFEEMLGGAAQVYLHADPTFGACDLHYGELDTTVRPDLIVHVGHSPYPAELAHEGLEPRGRVVYVRALSKSQLPLDALREAAGLLASRYGVRRVGIATTAQHTHLAEKAAEVLRGEGLEVAVPPGLRPYFGAAQVLGCDYRLARGVRADGFVYVGGGVFHPLGLYLATLKPVVQVDPYRGVSEDLTREGEKLYRSRLYRVSQSIGARRWGIIVGLKSGQYRPWLVEKLARAIESAGGEYLLVASEVTTLSQLVAIDNPWFEAFTVTSCPRLPTDDFWSYEKPVLTPGEAMMALEGRLEPYRFPWAAALEHHHHHH | not soluble |
| SIERLGYLGFAVKDVPAWDHFLTKSVGLMAAGSAGDAALYRADQRAWRIAVQPGELDDLAYAGLEVDDAAALERMADKLRQAGVAFTRGDEALMQQRKVMGLLCLQDPFGLPLEIYYGPAEIFHEPFLPSAPVSGFVTGDQGIGAFVRCVPDTAKAMAFYTEVLGFVLSDIIDIQMGPETSVPAHFLHCNGRHHTIALAAFPIPKRIHHFMLQANTIDDVGYAFDRLDAAGRITSLLGRHTNDQTLSFYADTPSPMIEVEFGWGPRTVDSSWTVARHSRTAMWGHKSVRGQR | soluble |
| MGSDKIHHHHHHMIRPSLAHTIISEVRKLLDEDLIVVDPSGTIIASTDKERMGSFHEGALISYNERRRLIITQDDESKLTGVKAGINLPIFFQDQVVGVIGITGDPSKVSAYGELLRKMTELLIKEKYYAEQLEWHARTLEAFVFDWVQQKEWTRSFINQAKMLHIDLTVSRQVIIGYYGQHNRERIQREWWIDVSQTFTRQKDDLLVRWGNDRFVMLLANKAEGKERAVHSIQQIQKYIQNKYRHSLSFGVGQSVCPQELYRSFEQAERALAVAVRTQSIVFEEDLRLDMCLQDVKKQTRVDFVQRTLEPIMKDEDLLETLKTFIARNQSFKETAETLHIHINTLHYRLKKMEDKTGLNPRDFHDLTTLYLGLLFLEDNLKN | not soluble |
| MRGRPIELEPWQQFAFACILGFKVKATGRRKYTSAFIEVPRKNAKSTTAAILANWFLIMENGQQDIYTAAVSRDQARIVFDNARQMCLLSRPLRRRVNIQAHKVIHPKSNSLLKPLAAKAATIEGTNPSLSIVDEYHLHPDNGVYSALELGMGARPEGLLFAITTSGSNVVSACKQHYDYCCQILDGEEVNDSIFVLIYELDDENEVDDPAMWIKANPNIDVSVDREKLASTIQKARGIPSQWVEMMTKRFNIWCQGTTPWMGNGAWAECAGTFTEEDLHGQECYAGLDLSSTSDISSVCYAFPVGKTIMLISRHYLPEFQLQNPANKNRAVYRQWAKAGWIRTTPGDCIDYDRIRDDIMQDAEKFNIRLVGFDTWNATHLRTQLQGAGFEVEPFPQTYLRFSPAAKSFEVFVNRRVIVHRGDPVLSWSMSNVVMQSDANANIKPNKKKSPNKIDPSVAALMAFGTFQAEHEDFAFDISDSHRQKLEEFSGV | not soluble |
